These results are taken from publication doi:10.1101/2022.04.25.489375 (bioRxiv, 2022).

Series [1] addresses Phosphomannose isomerase from T. kodakarensis (T. kodakarensis). The experiment in a line: SEC.
Series [2] deals with the molecule itself. The experiment in a line: SEC. A general note: In gel filtration, larger molecules generally elute earlier.

The stoichiometry N is a count of units in the complex or per binding partner.

As to “Phosphomannose isomerase from T. kodakarensis (enzyme)”, in series [1], the stoichiometry N is 2.

B1: Phosphomannose isomerase from T. barophilus (enzyme, UniProt F0LL70 1-113, looked up)
chain: MKAEIKEFIDRGTYRKAPLFEGELPEGSYAQIVEIKPKQTVPKHYHEKQYELFYIISGQAKLGIEEREYDAKPGDIFLVKPKTVHWVVNKKEEPFRLFVIKLNYFGDDSVWLE
Regarding B1, the “stoichiometry N” value in series [2] was 2.
